The target in the series is Lsm2/Lsm3;Lsm6/Lsm5/Lsm7;Lsm4-link-Lsm8 (human;human;human, UniProt Q9Y333;P62310;P62312;Q9Y4Y9;Q9UK45;Q9Y4Z0;O95777 …, ||). In words: gel filtration co-elution. (In general: SEC sorts molecules by how far they enter the pores of the column.)

As to GGCAAUUUUUGACAGUCUCUACGGAGACUG (structured_RNA) [U4-5'Δ], the binding result is listed as “no binding”.

These data come from PMC12117405.
